The values that follow come from patent US20110293511A1, “SPECIFIC BINDING PROTEINS AND USES THEREOF” (priority 2009, published 2011).

One assay deals with xenograft A431. In words: immunohistochemical analysis on xenograft tumors. The assay is classed as binding, human. From the text:
The murine fibroblast line NR6ΔEGFR was used as immunogen. Mouse hybridomas were generated by immunizing BALB/c mice five times subcutaneously at 2- to 3-week intervals, with 5×10^5-2×10^6 cells in adjuvant. Complete Freund's adjuvant was used for the first injection. Thereafter, incomplete Freund's adjuvant (Difco™, Voigt Global Distribution, Lawrence, Kans.) was used. Spleen cells from immunized mice were fused with mouse myeloma cell line SP2/0 (Shulman et al. (1978) Nature 276:269-270). Supernatants of newly generated clones were screened in hemadsorption assays for reactivity with cell line NR6, NR6wtEGFR, and NR6ΔEGFR and then analyzed by hemadsorption assays with human glioblastoma cell lines U87MG, U87MGwtEGFR, and U87ΔEGFR. Selected hybridoma supernatants were subsequently tested by western blotting and further analyzed by immunohistochemistry. Newly generated mAbs showing the expected reactivity pattern were purified.
Bound antibody was detected using the Dako Envision+ HRP detection system as per manufacturer's instructions. Sections were finally rinsed with water, counterstained with hematoxylin and mounted.

For a further assay, the system named is U87MG.DK cells. Description: binding to cell lines by FACS. Set-up: species or system human. How it is done:
Populations expressing similar levels of the various EGFR alleles (these expression levels correspond approximately to an amplification level of 25 gene copies; human glioblastomas typically have amplification levels from 10 to 50 gene copies of the truncated receptor) were selected by FACS as described previously (Nishikawa et al., 1994) and designated as U87MG.ΔEGFR, U87MG.DK, U87MG.wtEGFR, LN-Z308.ΔEGFR, LN-Z308.DK, LN-Z308.wtEGFR, A1207.ΔEGFR, A1207.DK, and A1207.wtEGFR, respectively. Each was maintained in medium containing G418 (U87MG cell lines, 400 μg/ml; LN-Z308 and A1207 cell lines, 800 μg/ml).
Stained cells were analyzed with a FACS Calibur using Cell Quest software (Becton-Dickinson PharMingen). […] 1. Mouse IgG2a or IgG2b was used as an isotype control.

The next assay has as its system HN5 and MDA-468 cells. In words: binding to cell lines by FACS. Set-up: species or system human. The following applies: HN5 and MDA-468, both cell lines.
The target of a further assay is T1, EGFR of A431 cells (Homo sapiens, UniProt P00533).
T1 construct: endogenous in cells; host or cells: A431 human squamous carcinoma cells
In words: ELISA of 806 reactivity in A431 lysate with AG1478. The assay is classed as cell-based. The following applies: AG1478 0.5 μM and 5 μM, 10 min at 37° C. How it is done: Cells were placed in serum free media overnight, then treated with AG1478 for 10 min at 37° C., washed twice in PBS, then lysed in 1% Triton and lysates prepared by centrifugation for 10 min at 12,000 g. […] Plates were then blocked with 10% serum albumin/PBS for 2 hours at 37° C. and washed twice. A 1:20 cell lysate was added in 10% serum albumin/PBS for 1 hour at 37° C., then washed four times. Anti-EGFR(SC-03; Santa Cruz Biotechnology Inc.) in 10% serum albumin/PBS was reacted 90 min at room temperature, the plate washed four times, and anti-rabbit-HRP (1:2000 if from Silenus) in 10% serum albumin/PBS was added for 90 min at room temperature, washed four times, and color developed using ABTS as a substrate.

B1: mAb806: murine IgG2b monoclonal antibody, clone 806, ATCC PTA-3858; VH SEQ ID NO:2, VL SEQ ID NO:4 (antibody, listed as Mus musculus, V domains shown)
VH: MRVLILLWLFTAFPGVLSDVQLQESGPSLVKPSQSLSLTCTVTGYSITSDFAWNWIRQFPGNKLEWMGYISYSGNTRYNPSLKSRISITRDTSKNQFFLQLNSVTIEDTATYYCVTAGRGFPYWGQGTLVTVSA
VL: MVSTAQFLAFLLLWFPGARCDILMTQSPSSMSVSLGDTVSITCHSSQDINSNIGWLQQRPGKSFKGLIYHGTNLDDEVPSRFSGSGSGADYSLTISSLESEDFADYYCVQYAQFPWTFGGGTKLEIKR
Consider B1, for which the Immunohistochemical staining result with xenograft A431 is “pos. (predominantly basal”. Moreover, the FACS staining entry in the assay with U87MG.DK cells is “reacted intensely”; with HN5 and MDA-468 cells, “clearly stained”. In the assay with EGFR of A431 cells, the “mAb806 binding in the presence of increasing amounts of AG1478” value is reported as “significantly increased”.
